Data taken from paper PMC3348139.
Each block holds one substance with its values, some of them ahead of it.

How the values were obtained:
DNase-I = DNase-I (UniProt P00639)
[1] = biological target: A230V human cardiac actin (A230V ACTC) (human); assay: pyrene-actin polymerisation assay (critical concentration); actin in G-buffer mixed with 2.5% pyrene-labeled alpha-skeletal actin; polymerization buffer 25 mM Tris pH 8.0, 50 mM KCl, 1 mM EGTA, 2 mM MgCl2, 0.1 mM ATP; Cc is the x-intercept of the change in pyrene fluorescence against actin concentration; monomer to filament
[2] = biological target: A331P human cardiac actin (A331P ACTC) (human); assay: as above
[3] = biological target: E99K human cardiac actin (E99K ACTC) (human); assay: as above
[4] = biological target: E361G human cardiac actin (E361G ACTC) (human); assay: as above
[5] = biological target: M305L human cardiac actin (M305L ACTC) (human); assay: as above
[6] = biological target: R312H human cardiac actin (R312H ACTC) (human); assay: as above
[7] = biological target: Y166C human cardiac actin (Y166C ACTC) (human); assay: as above
[8] = biological target: wildtype human cardiac actin (WT ACTC) (human) (UniProt P68032); assay: as above

Sequence of DNase-I (P00639 23-282): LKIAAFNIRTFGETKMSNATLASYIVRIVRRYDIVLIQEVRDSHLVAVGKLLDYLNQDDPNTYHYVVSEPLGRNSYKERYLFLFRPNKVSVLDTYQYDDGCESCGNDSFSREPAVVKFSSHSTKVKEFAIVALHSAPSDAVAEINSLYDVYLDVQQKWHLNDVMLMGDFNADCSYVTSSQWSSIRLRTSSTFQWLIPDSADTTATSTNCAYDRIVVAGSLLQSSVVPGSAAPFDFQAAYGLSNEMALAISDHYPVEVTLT

Substance: A331P human cardiac actin (A331P ACTC) (natural protein)
IC50 of inhibition of DNase-I activity (A260 with salmon sperm DNA; 0 to 100 nM ACTC, 15.4 nM DNase-I) (DNase-I): 26 nM | Cc (critical concentration of polymerisation) [2]: 2.95 µM

Substance: E361G human cardiac actin (E361G ACTC) (natural protein)
IC50 of inhibition of DNase-I activity (A260 with salmon sperm DNA; 0 to 100 nM ACTC, 15.4 nM DNase-I) (DNase-I): 16.8 nM | Cc (critical concentration of polymerisation) [4]: 0.58 µM

Substance: R312H human cardiac actin (R312H ACTC) (natural protein)
IC50 of inhibition of DNase-I activity (A260 with salmon sperm DNA; 0 to 100 nM ACTC, 15.4 nM DNase-I); the value rose on later days after purification (DNase-I): 36.7 nM | Cc (critical concentration of polymerisation) [6]: 4.75 µM

Substance: Y166C human cardiac actin (Y166C ACTC) (natural protein)
IC50 of inhibition of DNase-I activity (A260 with salmon sperm DNA; 0 to 100 nM ACTC, 15.4 nM DNase-I) (DNase-I): 24.6 nM | Cc (critical concentration of polymerisation) [7]: 2.67 µM

Second part, the substance after the results:

IC50 of inhibition of DNase-I activity (A260 with salmon sperm DNA; 0 to 100 nM ACTC, 15.4 nM DNase-I) (DNase-I): 15.3 nM | Cc (critical concentration of polymerisation) [1]: 2.11 µM
Substance: A230V human cardiac actin (A230V ACTC) (natural protein)

IC50 of inhibition of DNase-I activity (A260 with salmon sperm DNA; 0 to 100 nM ACTC, 15.4 nM DNase-I) (DNase-I): 25.7 nM | Cc (critical concentration of polymerisation) [3]: 1.67 µM
Substance: E99K human cardiac actin (E99K ACTC) (natural protein)

IC50 of inhibition of DNase-I activity (A260 with salmon sperm DNA; 0 to 100 nM ACTC, 15.4 nM DNase-I) (DNase-I): 17 nM | Cc (critical concentration of polymerisation) [5]: 2.21 µM
Substance: M305L human cardiac actin (M305L ACTC) (natural protein)

IC50 of inhibition of DNase-I activity (A260 with salmon sperm DNA; 0 to 100 nM ACTC, 15.4 nM DNase-I) (DNase-I): 13.2 nM | Cc (critical concentration of polymerisation) [8]: 0.28 µM
Substance: wildtype human cardiac actin (WT ACTC) (from UniProt P68032 1-377) (natural protein)
